Measurements: patent US20240011000

What was measured:
[1] = system: Br512 (villin headpiece HP47-Bst-LF fusion DNA polymerase) (Geobacillus stearothermophilus / Gallus gallus fusion)
Bst 2.0 DNA polymerase = Bst 2.0 DNA polymerase (UniProt P52026); conditions: RT-LAMP-OSD, 300 genomes, isothermal buffer, 65 C
[2] = system: Bst-LF (DNA polymerase I large fragment) (Geobacillus stearothermophilus); conditions: RT-LAMP-OSD, G6D buffer, 65 C

Chain of UniProt P52026 (P52026 297-876): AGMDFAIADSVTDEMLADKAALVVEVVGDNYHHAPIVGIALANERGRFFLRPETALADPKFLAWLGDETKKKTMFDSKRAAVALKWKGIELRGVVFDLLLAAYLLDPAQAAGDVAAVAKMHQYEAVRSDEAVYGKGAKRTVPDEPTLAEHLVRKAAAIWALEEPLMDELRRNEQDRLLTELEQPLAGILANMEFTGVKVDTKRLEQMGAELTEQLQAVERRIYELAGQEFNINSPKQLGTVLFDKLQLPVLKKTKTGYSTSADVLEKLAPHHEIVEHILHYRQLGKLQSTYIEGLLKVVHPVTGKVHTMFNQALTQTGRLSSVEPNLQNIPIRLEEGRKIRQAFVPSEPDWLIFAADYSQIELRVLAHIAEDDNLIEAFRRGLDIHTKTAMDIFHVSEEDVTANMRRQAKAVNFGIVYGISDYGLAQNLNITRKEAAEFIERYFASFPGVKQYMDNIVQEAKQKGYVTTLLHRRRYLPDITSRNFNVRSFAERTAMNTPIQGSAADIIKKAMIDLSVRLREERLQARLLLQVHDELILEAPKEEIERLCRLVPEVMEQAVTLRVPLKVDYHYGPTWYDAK

Row | Substance | activity (% assays positive) [1] | activity (% assays positive) (Bst 2.0 DNA polymerase) | activity (% assays positive) [2]
1 | SARS-CoV-2 RNA, 6-Lamb target | 100 | 75 | 33
2 | SARS-CoV-2 RNA, NB (N gene) target | 80 | 25 | 16
